First the molecules themselves.
B1: 5A4 antibody (antibody, V domains shown)
VH: QVQLQQPGPELVRPGASVKMSCKASGYTFTNYWIHWVKQRPGQGLEWIGMIDPSNSATRLNQKFKDKATLNVDKSSNTAYMQLSSLTSEDSAVYYCARGGFAFDSWGQGTTLTVSS
VL: DVLMTQTPLSLPVSLGDQASISCRSSQSLVHSNGNTYLHWYLQKPGQSPKLLIYKVSNRFSGVPDRFSGSGSGTDFTLKISRVEAEDLGVYFCSQSTHVPWTFGGGTKLEIK
notes: Hybridoma monoclonal antibody detected with anti-mouse IgG
B2: 4E12 antibody (antibody, V domains shown)
VH: QIQFAQSGPELKKSGETVKISCRASGYTFTNYGMNWVKQAPGKGLKWMGWINTYTGEPTYADDFKGRFAFSLETSASTAYLQINNLKNEDMATYFCARGGGRGAMDYWGQGTTLTVSS
VL: B1 VL with L29I, H39D, N58K, F92Y, S94F, S96G, T97S, W101F, G105S
notes: as for B1
B3: 1E7 antibody (antibody, V domains shown)
VH: EVQLQQSGPELIKPGASVKMSCKASGYIFTSYVVYWVKQKPGQGLEWIGYINPYNDGTKYNEKFKGKATLTSYKSSSTAYMELSSLTSADSAVYYCARGGFTTDYWGQGTTLTVSS
VL: B1 VL with W101Y
notes: as for B1
B4: 5H4 antibody (antibody, V domains shown)
VH: QVQLQQPGAELVKPGTSVKMSCKASGYTFTNYWMHWVKQRPGQVLEWIGVIDPSDSYTSYNQKFKGKATLTVDTSSTTAYMQLSSLTSEDSAVYYCTRGGKRAMDYWGQGTSVTVSS
VL: B1 VL with W101F, G105S
notes: as for B1
B5: 3H3 antibody (antibody, V domains shown)
VH: B1 VH with Q1E, I34M, A57E, Y95S
VL: B1 VL with S32N, S68R
notes: as for B1
B6: 3A5 antibody (antibody, V domains shown)
VH: B4 VH with Q1E, T16A, N31S, V37M, K38N, V44G, T77S, T97A
VL: B1 VL with W101F, G105S
notes: as for B1
B7: 7C7 antibody (antibody, V domains shown)
VH: EVQLQQSGPELVKPGASVRMSCKASGYTFTSYVMHWVKQKPGQGLEWIGYINPYNDGTKYNEKFKGKSTLTSDKSSSTAYMELSSLTSEDSAVYCCARGRNRYDSWFAYWGQGTLVTVSA
VL: DIQMTQTTSSLSASLGDRVTISCRASQDISNYLNWYQQKPDGTVKLLIYYTSRLHSGVPSRFSGSGSGTDYSLTISNLEQEDIATYFCQQGNTLPWTFGGGTKLEIK
notes: Monoclonal antibody from a hybridoma (mouse myeloma fusion), detected with anti-mouse IgG; In the ELISA hybridoma culture solution was used

Substitutions are numbered along the chain they refer to.

T2 sequence (Q08722 19-323 limits assumed): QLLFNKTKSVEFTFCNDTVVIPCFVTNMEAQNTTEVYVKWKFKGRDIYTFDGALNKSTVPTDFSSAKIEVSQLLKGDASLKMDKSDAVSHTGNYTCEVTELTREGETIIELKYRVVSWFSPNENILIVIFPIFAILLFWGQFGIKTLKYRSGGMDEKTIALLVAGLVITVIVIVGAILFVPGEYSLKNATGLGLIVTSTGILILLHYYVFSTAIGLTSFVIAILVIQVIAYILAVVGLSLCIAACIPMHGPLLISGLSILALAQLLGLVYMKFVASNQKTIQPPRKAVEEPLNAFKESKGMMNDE

The target of the first experiment is T1, CD47 protein (Acrobiosystems, cat#CD7-HA2E9) (UniProt Q08722 19-139).
T1 construct: Bought recombinant protein, used as immunogen and as ELISA coating (100 ng/well); also called CD47 peptide; CD47 antigen
T1 sequence (Q08722 19-139 limits assumed): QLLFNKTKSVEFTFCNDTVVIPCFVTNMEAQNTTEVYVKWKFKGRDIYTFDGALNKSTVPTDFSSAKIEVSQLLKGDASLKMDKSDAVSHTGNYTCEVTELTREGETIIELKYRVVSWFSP
Briefly: ELISA, CD47 protein coated 100 ng/well, 3 ul hybridoma culture solution, anti-mIgG-HRP. Here is the method:
3 μl of hybridoma cell culture solution of each clone for producing 7C7, 5H4, 5A4, 4E12, 3H3, 3A5, or 1E7 antibody was treated in each well, and then reacted at room temperature for 2 hours, and then washed 3 times with 1× PBST. Secondary antibody ([…], 1:10,000) was treated and reacted at room temperature for 30 minutes, washed 3 times with 1× PBST, and then treated with TMB for color development and reacted at room temperature for 5 minutes. Finally, the reaction was terminated by treatment with a stop solution of 1N H₂SO₄, and then the absorbance was measured at 450 nm.
For orientation: In an ELISA, binding on a coated surface is turned into a signal by an enzyme label.
Consider B1, for which the OD450 measurements was found to be 1.93 OD450.

B2: the OD450 measurements was determined as 2.15 OD450.

As to B3, the OD450 measurements is 2.14 OD450.

In turn, B4 yielded an OD450 measurements of 1.91 OD450.

B5 gave an OD450 measurements of 1.97 OD450.

With B6, the OD450 measurements was 2.01 OD450.

In turn, B7 gave an OD450 measurements of 1.98 OD450.

The next experiment has as its target T2, CD47 on breast cancer cell line MCF-7 (UniProt Q08722 19-323, limits assumed).
T2 construct: whole, on cells; Endogenous CD47 of MCF-7 cells; also called CD47-expressing tumor cells (MCF-7); CD47-expressing cells
Description: flow cytometry on MCF-7 cells, 1 ug antibody, PE anti-mouse IgG. How it is done: First, 1×10⁷ of breast cancer cell line MCF-7 expressing CD47 and 1 μg of 7C7, 5H4, […], 3H3, 3A5, and 1E7 antibody were reacted for 30 minutes, respectively, and then stained on surface with a secondary antibody. After staining, it was measured by flow cytometry.
As a positive control, CD47 antibody (Biolegend PE anti-human CD47, cat# 323108, 5 μl) was used, and as a secondary antibody, PE-conjugated anti-mouse IgG antibody (PE-conjugated goat anti-mouse IgG; Biolegend Inc., cat# 405307, USA, 5 μl) was used.
The molecule B1 yielded a Mean of 16000 and a Median of 14700.

B2 had a Mean of 6030 and a Median of 5380.

As for B3, the Mean came out at 16100 and the Median was found to be 14900.

In turn, B4 displayed a Mean of 15500 and a Median of 14300.

In turn, B5 gave a Mean of 18000 and a Median of 16500.

B6 showed a Mean of 15000 and a Median of 13900.

In the case of B7, the Mean was found to be 6820 and the Median was 6110.

Another experiment concerns the target T2, CD47 on breast cancer cell line MCF-7. Briefly: flow cytometry on MCF-7 cells, secondary antibody alone (background control).
Molecule “PE-conjugated goat anti-mouse IgG (Biolegend Inc., cat# 405307) (antibody)” gave a Mean of 80 and a Median of 73.9.

Source of the values: patent publication US20240034790A1 (INNOBATION BIO, published 2024).
